Measured values published in paper PMC7352597.

Tests used:
[1] = biological target: T1, RL2 (recombinant Lactaptin 2), the recombinant fragment of human κ-Casein (human), P07498; test: cellular fractionation, SDS-PAGE and Western Blot; MDA-MB-231 cells stimulated with 100 µg/mL RL2; fractions for cytoplasm, nucleus and mitochondria; RL2 monomer and dimer bands detected by Western Blot; conditions: remark: other sources report otherwise
T1 chain: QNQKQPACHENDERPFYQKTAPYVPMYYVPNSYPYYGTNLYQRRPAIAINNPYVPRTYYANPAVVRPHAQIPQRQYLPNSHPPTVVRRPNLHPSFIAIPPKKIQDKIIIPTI

[2] = biological target: T1, RL2 (recombinant Lactaptin 2), the …; test: SDS-PAGE and Western Blot of cell lysates; MDA-MB-231 cells treated with 200 µg/mL RL2 for indicated times, extracellular RL2 washed off; RL2 monomer and dimer bands detected in lysates with anti-κ-Casein antibody; SDS-PAGE under reducing conditions; conditions: remark: other sources report otherwise

B1: RL2 (recombinant Lactaptin 2), the recombinant fragment of human κ-Casein, P07498 23-134 (domain or fragment)
chain: QNQKQPACHENDERPFYQKTAPYVPMYYVPNSYPYYGTNLYQRRPAIAINNPYVPRTYYANPAVVRPHAQIPQRQYLPNSHPPTVVRRPNLHPSFIAIPPKKIQDKIIIPTI
stoichiometry N [1]: 2 | stoichiometry N [2]: 2
